The assay addresses Hepatitis B Surface Antigen (HBsAg) SpyCatcher nanoparticles (Hepatitis B virus). The assay is described as follows: covalent SpyTag/SpyCatcher conjugation shown by reduced SDS-PAGE.

“RBD-SpyTag (SARS-CoV-2 receptor binding domain fused to the SpyTag peptide) (from UniProt P0DTC2) (domain or fragment)” returned a fraction unconjugated below 20%.

Values taken from publication PMC8288147.
